These results are taken from the array DNA melting data of Ke et al..

A short description of this data set: melting temperature; melt of duplexes. The following applies: sodium 0.0675 M; strand 1 µM.
Take “CGACGTGCTGAATGTGCTG+CAGCACATAACGCACGTCG ((((((((...((((((((+))))))))...))))))))”: the Tm was determined as 50 °C.
Consider “CGACGTGCAACATGTGCTG+CAGCACATTACGCACGTCG ((((((((...((((((((+))))))))...))))))))”, for which the melting temperature (Tm) was found to be 47.9 °C.
As for “CGACGTGCAGTATGTGCTG+CAGCACATCAAGCACGTCG ((((((((...((((((((+))))))))...))))))))”, the figure is 49.6 °C; as for “CGACGTGCCGAATGTGCTG+CAGCACATCAAGCACGTCG ((((((((...((((((((+))))))))...))))))))”, 49.6 °C.
As for “CGACGTGCGGGATGTGCTG+CAGCACATAACGCACGTCG (((((((((..((((((((+))))))))..)))))))))”, the figure is 59.4 °C; as for “CGACGTGCACAATGTGCTG+CAGCACATAACGCACGTCG ((((((((...((((((((+))))))))...))))))))”, 45.3 °C.
As for “CGACGTGCAACATGTGCTG+CAGCACATCTAGCACGTCG ((((((((.(.((((((((+)))))))).).))))))))”, the figure is 48.2 °C.
Regarding “CGACGTGCTCAATGTGCTG+CAGCACATATGGCACGTCG ((((((((...((((((((+))))))))...))))))))”, the Tm worked out at 50.5 °C.
As for “CGACGTGCCGCATGTGCTG+CAGCACATCACGCACGTCG ((((((((...((((((((+))))))))...))))))))”, the figure is 48.3 °C; as for “CGACGTGCGAAATGTGCTG+CAGCACATGCCGCACGTCG (((((((((..((((((((+))))))))..)))))))))”, 56 °C; as for “CGACGTGCAGCATGTGCTG+CAGCACATTGCGCACGTCG ((((((((...((((((((+))))))))...))))))))”, 52.5 °C.
Next, “CGACGTGCGCTATGTGCTG+CAGCACATGCGGCACGTCG ((((((((...((((((((+))))))))...))))))))”: 54 °C; “CGACGTGCTCTATGTGCTG+CAGCACATTTAGCACGTCG (((((((((..((((((((+))))))))..)))))))))”: 51 °C.
As for “CGACGTGCGGGATGTGCTG+CAGCACATTATGCACGTCG ((((((((...((((((((+))))))))...))))))))”, the figure is 51.8 °C; as for “CGACGTGCACCATGTGCTG+CAGCACATTTAGCACGTCG ((((((((...((((((((+))))))))...))))))))”, 42.2 °C; as for “CGACGTGCGCAATGTGCTG+CAGCACATTAGGCACGTCG ((((((((..(((((((((+)))))))))..))))))))”, 52.7 °C.
For “CGACGTGCGTAATGTGCTG+CAGCACATTGCGCACGTCG (((((((((.(((((((((+))))))))).)))))))))”, the Tm came out at 60.3 °C.
Next, “CGACGTGCAAAATGTGCTG+CAGCACATGGCGCACGTCG ((((((((...((((((((+))))))))...))))))))”: 54 °C; “CGACGTGCTAAATGTGCTG+CAGCACATCGTGCACGTCG ((((((((...((((((((+))))))))...))))))))”: 44.7 °C; “CGACGTGCCGGATGTGCTG+CAGCACATGAAGCACGTCG ((((((((...((((((((+))))))))...))))))))”: 49.9 °C.
Next, “CGACGTGCAATATGTGCTG+CAGCACATCTAGCACGTCG ((((((((.(.((((((((+)))))))).).))))))))”: 49.2 °C.
As for “CGACGTGCCTCATGTGCTG+CAGCACATGCGGCACGTCG (((((((((.(((((((((+))))))))).)))))))))”, the Tm was 58.3 °C.
Next, “CGACGTGCTGTATGTGCTG+CAGCACATCATGCACGTCG ((((((((...((((((((+))))))))...))))))))”: 50.9 °C.
As for “CGACGTGCAGCATGTGCTG+CAGCACATGCTGCACGTCG (((((((((((((((((((+)))))))))))))))))))”, the figure is 66.1 °C.
As for “CGACGTGCAAAATGTGCTG+CAGCACATTAAGCACGTCG ((((((((..(((((((((+)))))))))..))))))))”, the figure is 52.4 °C.
Turning to “CGACGTGCTAGATGTGCTG+CAGCACATTGAGCACGTCG (((((((((..((((((((+))))))))..)))))))))”, the Tm worked out at 54 °C.
As for “CGACGTGCGTAATGTGCTG+CAGCACATAACGCACGTCG ((((((((((.((((((((+)))))))).))))))))))”, the figure is 59.1 °C; as for “CGACGTGCGACATGTGCTG+CAGCACATTTTGCACGTCG ((((((((.(.((((((((+)))))))).).))))))))”, 51.4 °C; as for “CGACGTGCCTAATGTGCTG+CAGCACATAAAGCACGTCG ((((((((.(.((((((((+)))))))).).))))))))”, 50.3 °C.
As for “CGACGTGCTCGATGTGCTG+CAGCACATGAAGCACGTCG (((((((((..((((((((+))))))))..)))))))))”, the figure is 52.8 °C.
Next, “CGACGTGCTCAATGTGCTG+CAGCACATCACGCACGTCG ((((((((...((((((((+))))))))...))))))))”: 48.1 °C; “CGACGTGCCTGATGTGCTG+CAGCACATGAAGCACGTCG ((((((((.(.((((((((+)))))))).).))))))))”: 49.8 °C; “CGACGTGCGACATGTGCTG+CAGCACATTCGGCACGTCG ((((((((...((((((((+))))))))...))))))))”: 51.9 °C.
For “CGACGTGCTGGATGTGCTG+CAGCACATCGAGCACGTCG (((((((((.(((((((((+))))))))).)))))))))”, the melting temperature (Tm) is 59.3 °C.
Regarding “CGACGTGCCGTATGTGCTG+CAGCACATGTCGCACGTCG ((((((((...((((((((+))))))))...))))))))”, the Tm was 49 °C.
As for “CGACGTGCACTATGTGCTG+CAGCACATCGAGCACGTCG ((((((((.(.((((((((+)))))))).).))))))))”, the figure is 46.7 °C; as for “CGACGTGCAGAATGTGCTG+CAGCACATCTCGCACGTCG ((((((((...((((((((+))))))))...))))))))”, 51.6 °C.
Next, “CGACGTGCAAAATGTGCTG+CAGCACATTGGGCACGTCG ((((((((..(((((((((+)))))))))..))))))))”: 54 °C; “CGACGTGCCTGATGTGCTG+CAGCACATCGGGCACGTCG (((((((((.(((((((((+))))))))).)))))))))”: 61.7 °C; “CGACGTGCTAAATGTGCTG+CAGCACATTGAGCACGTCG (((((((((.(((((((((+))))))))).)))))))))”: 57.2 °C.
In the case of “CGACGTGCATAATGTGCTG+CAGCACATGATGCACGTCG ((((((((((.((((((((+)))))))).))))))))))”, the Tm came out at 56.8 °C.
Next, “CGACGTGCCCGATGTGCTG+CAGCACATCTTGCACGTCG ((((((((..(((((((((+)))))))))..))))))))”: 52.5 °C.
Next, “CGACGTGCAATATGTGCTG+CAGCACATGTCGCACGTCG ((((((((.(.((((((((+)))))))).).))))))))”: 51.5 °C; “CGACGTGCACCATGTGCTG+CAGCACATACTGCACGTCG (((((((((..((((((((+))))))))..)))))))))”: 44.9 °C.
Turning to “CGACGTGCAAAATGTGCTG+CAGCACATTTGGCACGTCG ((((((((.((((((((((+)))))))))).))))))))”, the Tm amounted to 57.6 °C.
Next, “CGACGTGCTCCATGTGCTG+CAGCACATATAGCACGTCG (((((((((..((((((((+))))))))..)))))))))”: 50.4 °C; “CGACGTGCCCAATGTGCTG+CAGCACATTTAGCACGTCG ((((((((..(((((((((+)))))))))..))))))))”: 50.4 °C; “CGACGTGCAAGATGTGCTG+CAGCACATATGGCACGTCG ((((((((.(.((((((((+)))))))).).))))))))”: 53 °C.
As for “CGACGTGCCTAATGTGCTG+CAGCACATGTAGCACGTCG ((((((((...((((((((+))))))))...))))))))”, the figure is 51.8 °C.
As for “CGACGTGCTCTATGTGCTG+CAGCACATCCCGCACGTCG ((((((((...((((((((+))))))))...))))))))”, the figure is 47.5 °C.
Turning to “CGACGTGCTCTATGTGCTG+CAGCACATACTGCACGTCG ((((((((..(((((((((+)))))))))..))))))))”, the Tm was found to be 49.5 °C.
For “CGACGTGCGATATGTGCTG+CAGCACATTGGGCACGTCG ((((((((...((((((((+))))))))...))))))))”, the Tm turned out to be 50.3 °C.
Next, “CGACGTGCGCTATGTGCTG+CAGCACATTTAGCACGTCG ((((((((...((((((((+))))))))...))))))))”: 51.6 °C; “CGACGTGCACCATGTGCTG+CAGCACATTGAGCACGTCG ((((((((.(.((((((((+)))))))).).))))))))”: 47.2 °C; “CGACGTGCGTCATGTGCTG+CAGCACATCAAGCACGTCG ((((((((.(.((((((((+)))))))).).))))))))”: 52.6 °C.
On to “CGACGTGCTACATGTGCTG+CAGCACATTAGGCACGTCG ((((((((...((((((((+))))))))...))))))))”, for which the Tm came to 50.5 °C.
Next, “CGACGTGCGGAATGTGCTG+CAGCACATCCAGCACGTCG ((((((((.(.((((((((+)))))))).).))))))))”: 55.1 °C; “CGACGTGCGTAATGTGCTG+CAGCACATTTTGCACGTCG ((((((((..(((((((((+)))))))))..))))))))”: 54.4 °C; “CGACGTGCCGGATGTGCTG+CAGCACATACGGCACGTCG ((((((((((.((((((((+)))))))).))))))))))”: 63.8 °C.
As for “CGACGTGCTCCATGTGCTG+CAGCACATTCGGCACGTCG ((((((((...((((((((+))))))))...))))))))”, the figure is 47.6 °C; as for “CGACGTGCTCTATGTGCTG+CAGCACATGTGGCACGTCG ((((((((...((((((((+))))))))...))))))))”, 50.4 °C; as for “CGACGTGCAGGATGTGCTG+CAGCACATCGTGCACGTCG (((((((((.(((((((((+))))))))).)))))))))”, 58.3 °C.
As for “CGACGTGCGAGATGTGCTG+CAGCACATCCAGCACGTCG ((((((((..(((((((((+)))))))))..))))))))”, the figure is 56.5 °C; as for “CGACGTGCTTCATGTGCTG+CAGCACATAGCGCACGTCG ((((((((...((((((((+))))))))...))))))))”, 47.4 °C.
In the case of “CGACGTGCCTAATGTGCTG+CAGCACATGAAGCACGTCG ((((((((.(.((((((((+)))))))).).))))))))”, the Tm stood at 51 °C.
Next, “CGACGTGCCCTATGTGCTG+CAGCACATGCTGCACGTCG ((((((((...((((((((+))))))))...))))))))”: 45.4 °C.

A word on the Tm: it is the temperature at which the thermal transition is half complete.
